Drawing on PMC12274814, this text covers K half for 1 substance.

The target of the series is nsP13 helicase (SARS-CoV-2) (UniProt P0DTD1).

As for ssDNA-F (25-nt), the K half was 53 nM.
